Results as given in PMC5799255, “Histone H5 is a potent Antimicrobial Agent and a template for novel Antimicrobial Peptides” (Scientific Reports, 2018).

Test: Circular dichroism (CD) secondary structure analysis, CDSSTR deconvolution
Format: physicochemical
Conditions: for α-helix: room temperature, average of two independent measurements
Experimental: The secondary structure of histone H5 and the three preparations of histone H5-derived peptide H5(61–90) was investigated in different environments: sterile H2O, pH 7.4 (aqueous environment) and 30 mM SDS (mimicking the negatively charged bacterial membrane environment), by circular dichroism (CD) spectroscopy. […] Deconvolution of the spectral data with the CDSSTR program estimated the secondary structural components (α-helix, β-sheet, turns, etc.) of each peptide (Table 8). […] However, the α-helical proportions in the presence of 30 mM SDS were 76.9%, 84.2%, 75.5% and 84.7% for histone H5, H5(61–90) V1, H5(61–90) V2 and H5(61–90) V3, respectively.
The protocol followed for circular dichroism spectrometry was based on previously described methods. Circular dichroism (CD) measurements were performed using a Jasco-715 Spectropolarimeter (Japan Spectroscopic Co., Tokyo), in which the wavelengths scanned were 185 to 260 nm, using a scan speed of 100 nm/min, a bandwidth and data pitch of 1.0 nm, with a quartz cell (0.1 cm path length). Histone H5 and histone H5-derived peptides were dissolved in sterile ddH2O, pH 7.4, or 30 mM SDS. The CD spectrum of sterile ddH2O (buffer of the samples) was used as the blank. Each CD spectrum represents the average of two independent measurements, each in quintuplicate. The CD data was converted to molar ellipticity [θ], which was calculated using the following equation:1 [θ]=CDinmdeg/(10×pathlengthincm×Cr) where Cr = number of residues x molar concentration (mol/L).
In order to estimate secondary structure content, averaged CD spectra for each peptide were analysed using the CDSSTR software. This program analyzes the molar ellipticity [θ] values at each wavelength and compares them with a library of known protein secondary structures (α-helix, β-sheet, turns, etc.) in order to estimate the percentages of the various secondary structural components of the tested peptide samples.

B1: histone H5: erythrocyte-specific linker histone purified from chicken erythrocytes, 190 amino acids (protein, UniProt P02259 2-190, looked up)
Histone H5: TESLVLSPAPAKPKRVKASRRSASHPTYSEMIAAAIRAEKSRGGSSRQSIQKYIKSHYKVGHNADLQIKLSIRRLLAAGVLKQTKGVGASGSFRLAKSDKAKRSPGKKKKAVRRSTSPKKAARPRKARSPAKKPKATARKARKKSRASPKKAKKPKTVKAKSRKASKAKKVKRSKPRAKSGARKSPKKK
- Random Coil (30 mM SDS, CD): 8.9%
- Turns (30 mM SDS, CD): 4.5%
- β-sheet (30 mM SDS, CD): 9.7%
- α-helix (30 mM SDS, CD 185-260 nm): 76.9%
- Random Coil (sterile ddH2O pH 7.4, CD): 32.2%
- Turns (sterile ddH2O pH 7.4, CD): 22.4%
- β-sheet (sterile ddH2O pH 7.4, CD): 22.7%
- α-helix (sterile ddH2O pH 7.4, CD 185-260 nm): 23.4%
